Results from publication PMC10071043, “Cryo-EM structure of the RuvAB-Holliday junction intermediate complex from Pseudomonas aeruginosa” (Frontiers in Plant Science, 2023).

T1: PaRuvA (Pseudomonas aeruginosa, UniProt Q51425 1-201)
T1 sequence: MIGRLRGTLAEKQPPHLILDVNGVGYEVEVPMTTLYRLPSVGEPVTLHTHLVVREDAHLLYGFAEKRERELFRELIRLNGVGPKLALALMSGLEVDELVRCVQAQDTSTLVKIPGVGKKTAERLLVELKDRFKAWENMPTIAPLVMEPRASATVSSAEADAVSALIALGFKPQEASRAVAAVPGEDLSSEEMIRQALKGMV

B1: HJ2 (HJ2-A/B/C/D) (structured_DNA)
DNA 1: CACTGTGATGCACGATGATAGAACACAGTACTCAGTGCTGCAGTGCTCAGGTGTG
DNA 2: ATACAGATGTAGAGCCAGCACTGAGTACTGTGTTCTATCATCGTGCATCACAGTG
DNA 3: CACTGTGATGGCATGTATCCGAACACAGTACTCAGTGCTGGCTCTACATCTGTAT
DNA 4: CACACCTGAGCACTGCAGCACTGAGTACTGTGTTCGGATACATGCCATCACAGTG
B2: Pseudomonas aeruginosa RuvB (enzyme, UniProt Q51426 1-352, looked up)
chain: MIEPDRLISAVSGRERDEQLDRAIRPLKLADYIGQPSVREQMELFIHAARGRQEALDHTLIFGPPGLGKTTLANIIAQEMGVSIKSTSGPVLERPGDLAALLTNLEAGDVLFVDEIHRLSPIVEEVLYPAMEDFQLDIMIGEGPAARSIKLDLPPFTLVGATTRAGMLTNPLRDRFGIVQRLEFYNVEDLATIVSRSAGILGLEIEPQGAAEIAKRARGTPRIANRLLRRVRDFAEVRGQGDITRVIADKALNLLDVDERGFDHLDRRLLLTMIDKFDGGPVGIDNLAAALSEERHTIEDVLEPYLIQQGYIMRTPRGRVVTRHAYLHFGLNIPKRLGPGVTTDLFTSEDGN
notes: RuvB, AAA+ ATPase motor protein of Pseudomonas aeruginosa; cDNA synthesised (GenBank ID 882028); domains N, M and C; In the cryo-EM complex eight RuvB subunits form two open rings of four; only one ring is modelled; GST removed with PreScission protease; also called PaRuvB; source: E. coli BL21 (DE3), purified (GST Sepharose, Source 15Q, Superdex 200); not shown: GST, N-terminal, cleaved
B3: Pseudomonas aeruginosa RuvA (natural protein, UniProt Q51425 1-201, looked up)
chain: T1 sequence
notes: cDNA synthesised (GenBank ID 879609); domains D1, D2 and D3; In the cryo-EM complex eight RuvA subunits (two tetramers) sandwich one Holliday junction DNA; GST removed with PreScission protease; also called PaRuvA; source: E. coli Rosetta (DE3), purified (GST Sepharose, Source 15Q, Superdex 200); not shown: GST, N-terminal, cleaved

Tests used:
PaRuvA = molecular target: T1, PaRuvA; assay: cryo-EM; RuvA-HJ core region of the RuvAB-HJ complex, 3.0 A; PDB assigned from residue and nucleotide counts; binding buffer for cryo-EM not given in material; proteins in 20 mM HEPES pH 7.4, 200 mM NaCl, 15 mM reduced glutathione, 1 mM DTT; DNA annealed in 100 mM HEPES pH 7.4, 50 mM NaCl; details: protein: recombinant; tags: GST tag removed (PreScission); chain copies: 8; four-way Holliday junction of 4 strands; A/B and C/D annealed first, then mixed
PaRuvB = PaRuvB (Pseudomonas aeruginosa, UniProt Q51426 1-352); assay: cryo-EM; RuvB ring on one HJ arm duplex in the RuvAB-HJ complex; RuvB1 and RuvB2 contact DNA via C-terminal beta-hairpins, RuvB3 and RuvB4 DNA-free; PDB assigned from residue and nucleotide counts; binding buffer for cryo-EM not given in material; proteins in 20 mM HEPES pH 7.4, 200 mM NaCl, 15 mM reduced glutathione, 1 mM DTT; DNA annealed in 100 mM HEPES pH 7.4, 50 mM NaCl; details: protein: recombinant; tags: GST tag removed (PreScission); chain copies: 8; four-way Holliday junction of 4 strands; A/B and C/D annealed first, then mixed
PaRuvA;PaRuvB = PaRuvA;PaRuvB (Pseudomonas aeruginosa;Pseudomonas …, UniProt Q51425;Q51426 1-201;1-352, |); assay: cryo-EM; RuvAB-HJ intermediate complex; PDB assigned from residue and nucleotide counts; binding buffer for cryo-EM not given in material; proteins in 20 mM HEPES pH 7.4, 200 mM NaCl, 15 mM reduced glutathione, 1 mM DTT; DNA annealed in 100 mM HEPES pH 7.4, 50 mM NaCl; details: protein: recombinant;recombinant; tags: GST tag removed (PreScission);GST tag removed (PreScission); chain copies: 8;8; four-way Holliday junction of 4 strands; A/B and C/D annealed first, then mixed
[1] = molecular target: the molecule itself; assay: cryo-EM structure; HJ DNA (HJ2) pre-incubated with RuvA at 4°C for 15 min, then with RuvB for 15 min, RuvA:RuvB:HJ = 8:16:1.2; 50 mM NaCl, 20 mM HEPES pH 7.4, 1 mM ATPγS, 10 mM MgCl2, 1 mM DTT; complex purified on Superose 6
[2] = molecular target: B2; assay: as above; details: both partners purified

B1: binds (PaRuvA); binds (PaRuvB); binds (PaRuvA;PaRuvB).

In the case of B2, the “stoichiometry N” value [1] is reported as 4.

In the case of B3, the “stoichiometry N” value [1] is reported as 8 and the binding result [2] is reported as “binds”.
